3 substances from patent US20120040375A1 can be followed below.

In one experiment the target is Biotin-Tn(DT*R)-100. Kind of experiment: SPR, Biacore T100, Biotin-Tn(DT*R)-100 on sensor chip SA. In general terms: SPR reads the build-up and loss of mass on a sensor chip optically.
Experiment [1] concerns the target biotin-labeled T-47D culture supernatant (MUC1) (human) (UniProt P15941). In words: SPR, Biacore, biotin-labeled T-47D culture supernatant on sensor chip SA.

biotin-labeled T-47D culture supernatant (MUC1) (human), sequence (P15941 24-1097 limits assumed): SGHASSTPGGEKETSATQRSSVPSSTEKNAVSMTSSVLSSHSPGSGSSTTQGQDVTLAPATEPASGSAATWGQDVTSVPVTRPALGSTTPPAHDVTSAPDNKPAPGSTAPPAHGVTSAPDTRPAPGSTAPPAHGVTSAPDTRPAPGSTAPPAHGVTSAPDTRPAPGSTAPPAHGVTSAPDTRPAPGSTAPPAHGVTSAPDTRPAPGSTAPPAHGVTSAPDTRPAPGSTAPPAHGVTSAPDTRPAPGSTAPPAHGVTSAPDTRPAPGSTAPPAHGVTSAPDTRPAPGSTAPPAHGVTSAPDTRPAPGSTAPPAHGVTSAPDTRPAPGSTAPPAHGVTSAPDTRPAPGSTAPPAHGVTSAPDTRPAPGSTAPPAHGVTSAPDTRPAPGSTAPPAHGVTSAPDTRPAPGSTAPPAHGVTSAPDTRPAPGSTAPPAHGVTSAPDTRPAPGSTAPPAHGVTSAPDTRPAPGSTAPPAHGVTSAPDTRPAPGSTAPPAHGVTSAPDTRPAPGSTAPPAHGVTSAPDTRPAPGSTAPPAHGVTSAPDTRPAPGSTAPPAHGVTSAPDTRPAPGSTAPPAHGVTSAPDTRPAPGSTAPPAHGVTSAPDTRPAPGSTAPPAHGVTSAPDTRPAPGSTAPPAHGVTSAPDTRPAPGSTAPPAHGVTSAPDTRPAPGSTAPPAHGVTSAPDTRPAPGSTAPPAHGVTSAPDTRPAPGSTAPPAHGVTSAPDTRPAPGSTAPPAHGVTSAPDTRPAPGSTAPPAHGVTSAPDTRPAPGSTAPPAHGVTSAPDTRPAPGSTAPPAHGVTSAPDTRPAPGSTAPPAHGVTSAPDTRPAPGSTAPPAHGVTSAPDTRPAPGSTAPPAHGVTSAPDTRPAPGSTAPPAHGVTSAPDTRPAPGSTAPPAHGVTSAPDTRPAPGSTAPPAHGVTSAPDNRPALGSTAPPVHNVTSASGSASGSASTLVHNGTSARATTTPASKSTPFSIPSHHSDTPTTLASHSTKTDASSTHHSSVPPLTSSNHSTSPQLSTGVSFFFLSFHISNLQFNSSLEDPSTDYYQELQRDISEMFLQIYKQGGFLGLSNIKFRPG
T100 sequence (peptide, as listed by the source limits assumed): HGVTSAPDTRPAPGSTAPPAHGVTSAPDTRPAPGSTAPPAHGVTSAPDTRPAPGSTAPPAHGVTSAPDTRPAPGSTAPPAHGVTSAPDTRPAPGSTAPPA

Take C595 (antibody): in the experiment with Biotin-Tn(DT*R)-100, the Kd amounted to 720 nM, the koff was determined as 0.012 s⁻¹ and the kon was determined as 16000 M⁻¹ s⁻¹. Besides, in experiment [1], the Kd was determined as 580 nM, the koff was 0.026 s⁻¹ and the kon worked out at 44000 M⁻¹ s⁻¹.

In the experiment with Biotin-Tn(DT*R)-100, VU-2G7 (antibody) returned a Kd of 180 nM, a koff of 0.064 s⁻¹ and a kon of 360000 M⁻¹ s⁻¹. In experiment [1], this substance returned a Kd of 180 nM, a koff of 0.099 s⁻¹ and a kon of 550000 M⁻¹ s⁻¹.

In the experiment with Biotin-Tn(DT*R)-100, VU-3C6 (antibody) registered a Kd of 840 nM, a koff of 0.051 s⁻¹ and a kon of 61000 M⁻¹ s⁻¹. In experiment [1], this substance gave a Kd of 150 nM, a koff of 0.015 s⁻¹ and a kon of 110000 M⁻¹ s⁻¹.

The term Kd denotes the free concentration of one partner at which half of the binding sites on the other are occupied at equilibrium, for simple one-to-one binding. Read a high Kd as weaker binding. By koff is commonly meant the first-order rate constant of dissociation. The kon is a measure of how fast the partners come together. Low values mean slow association, high ones fast association.
